In data set [1] the target is T1, N-terminally SNAP-tagged human dopamine D2L receptor (human), P14416.
T1 chain: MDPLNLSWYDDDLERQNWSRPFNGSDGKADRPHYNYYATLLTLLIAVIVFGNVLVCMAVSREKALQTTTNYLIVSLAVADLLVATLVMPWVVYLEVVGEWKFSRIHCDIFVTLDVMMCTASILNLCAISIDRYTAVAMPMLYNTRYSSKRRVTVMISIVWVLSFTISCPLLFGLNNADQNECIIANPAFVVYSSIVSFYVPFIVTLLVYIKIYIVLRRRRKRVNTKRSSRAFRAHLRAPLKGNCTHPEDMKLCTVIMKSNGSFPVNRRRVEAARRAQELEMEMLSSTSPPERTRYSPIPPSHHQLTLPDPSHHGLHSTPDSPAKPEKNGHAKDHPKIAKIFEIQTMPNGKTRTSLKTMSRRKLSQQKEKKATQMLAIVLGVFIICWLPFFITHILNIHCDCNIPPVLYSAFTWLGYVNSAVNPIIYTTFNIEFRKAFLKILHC
In words: single-molecule TIRF microscopy (lifetime of transient dimers from intensity trajectories); Alexa546-labelled SNAP-D2L on living CHO cells, ligand-free; 120 dimers whose trajectories show intensity doubling and return; one-phase exponential fit. The settings on record: remark: other sources report otherwise.

Data set [2] addresses T1, N-terminally SNAP-tagged human dopamine …. Kind of data set: single-molecule TIRF microscopy (apparent lifetime of particle colocalization); Alexa546-labelled SNAP-D2L on living CHO cells with the monovalent ligand 1a; 120 trajectories, one-phase exponential decay; apparent. Particulars: remark: other sources report otherwise.
The target is the same in data set [3]. In words: single-molecule TIRF microscopy (apparent lifetime of particle colocalization); Alexa546-labelled SNAP constructs on living CHO cells, ligand-free; time from the beginning of tracking to a one-step intensity change, 120 trajectories, one-phase exponential decay; apparent. The settings on record: remark: other sources report otherwise.
The target is the same in data set [4]. Kind of data set: single-molecule TIRF microscopy (intensity distribution of fluorescent spots); receptors on living CHO cells labelled 1 h at 37 °C with a fluorescent (Cy3B) antagonist (1c, 4a or 4b) at 10-fold Ki; spots fitted with a mixed Gaussian model. Particulars: remark: other sources report otherwise.
Data set [5] has the same target. Kind of data set: single-molecule TIRF microscopy (intensity distribution of fluorescent spots); Alexa546-BG-labelled SNAP-D2L on living CHO cells, incubated 1 h with the unsymmetrical control ligands 3a or 3b (one pharmacophore, one non-binding motif) at 10-fold Ki. The settings on record: remark: other sources report otherwise.
For data set [6] the target is unchanged. In words: single-molecule TIRF microscopy (intensity distribution of fluorescent spots); living stably transfected CHO cells, SNAP-tag labelled with 1 uM Alexa546-BG, ligand-free; spots of the first 10 frames fitted with a mixed Gaussian model; room temperature (24.0 ± 0.3 °C), imaging buffer pH 7.4; SNAP-D2L at 0.67 ± 0.03 spots um^-2. The settings on record: remark: other sources report otherwise.

The target is the same in data set [7]. In words: single-molecule TIRF microscopy (apparent lifetime of particle colocalization); Alexa546-labelled SNAP-D2L on living CHO cells with the bivalent ligand 2a; 120 trajectories, one-phase exponential decay; apparent. Particulars: remark: other sources report otherwise.
The target is the same in data set [8]. In words: single-molecule TIRF microscopy (intensity distribution of fluorescent spots); Alexa546-BG-labelled SNAP-D2L on living CHO cells, incubated 1 h with the bivalent antagonists 2a or 2b at 10-fold Ki. Particulars: remark: other sources report otherwise.
Data set [9] deals with the molecule itself. In words: single-molecule TIRF microscopy (intensity distribution of fluorescent spots); receptors on living CHO cells labelled 1 h at 37 °C with a fluorescent (Cy3B) antagonist (1c, 4a or 4b) at 10-fold Ki; spots fitted with a mixed Gaussian model.

B1: N-terminally SNAP-tagged human dopamine D2L receptor, P14416 1-443 (receptor)
chain: T1 chain
modifications: here or on the partner: Alexa546 covalently on the SNAP-tag through benzylguanine (Alexa546-BG) in the SNAP-labelling experiments; Alexa546 covalently on the SNAP-tag through benzylguanine (Alexa546-BG) in the SNAP-labelling experiments
Regarding B1, in [1], the half-life (t1/2) of the transient dimer came out at 0.35 s and the lifetime of the transient dimer is 0.5 s. For the same molecule, the apparent colocalization lifetime (tau), with monovalent ligand 1a in [2] turned out to be 0.42 s. In data set [3], the apparent colocalization lifetime (tau) amounted to 0.46 s. For the same molecule, in data set [4], the percent of fluorescent spots that are dimers, labelled with antagonist 1c came out at 26% and the percent of fluorescent spots that are monomers, labelled with antagonist 1c stood at 74%. Also, in data set [5], the percent of fluorescent spots that are dimers, with control ligand 3a was determined as 33%; the percent of fluorescent spots that are dimers, with control ligand 3b came to 34%; the percent of fluorescent spots that are monomers, with control ligand 3a is 67%; the percent of fluorescent spots that are monomers, with control ligand 3b was 66%. Besides, in data set [6], the percent of fluorescent spots that are dimers is 30%, the percent of fluorescent spots that are monomers stood at 70% and the stoichiometry N stood at 2. In [7], the apparent colocalization lifetime (tau), with bivalent ligand 2a is 1.16 s. In data set [8], this molecule returned a percent of fluorescent spots that are dimers, with bivalent antagonist 2a of 66% and a percent of fluorescent spots that are dimers, with bivalent antagonist 2b of 58%.

B2: human dopamine D3 receptor (receptor, UniProt P35462 1-400, looked up)
chain: MASLSQLSGHLNYTCGAENSTGASQARPHAYYALSYCALILAIVFGNGLVCMAVLKERALQTTTNYLVVSLAVADLLVATLVMPWVVYLEVTGGVWNFSRICCDVFVTLDVMMCTASILNLCAISIDRYTAVVMPVHYQHGTGQSSCRRVALMITAVWVLAFAVSCPLLFGFNTTGDPTVCSISNPDFVIYSSVVSFYLPFGVTVLVYARIYVVLKQRRRKRILTRQNSQCNSVRPGFPQQTLSPDPAHLELKRYYSICQDTALGGPGFQERGGELKREEKTRNSLSPTIAPKLSLEVRKLSNGRLSTSLKLGPLQPRGVPLREKKATQMVAIVLGAFIVCWLPFFLTHVLNTHCQTCHVSPELYSATTWLGYVNSALNPVIYTTFNIEFRKAFLKILSC
notes: human dopamine D3 receptor, non-tagged; source: dihydrofolate reductase gene-deficient CHO-K1 cells, stably expressing, in the membrane of living cells
Turning to B2, the “stoichiometry N” value in data set [9] is 2.

(Values after article PMC5018964, “Visualization and ligand-induced modulation of dopamine receptor dimerization at the single molecule level” (Scientific Reports, 2016).)
